According to patent US20240067696A1 (ZEALAND PHARMA A S, published 2024):
Non-standard residues stand in square brackets, D forms with d. Dab = NCC[C@H](N)C(=O)O; Aib = CC(C)(N)C(=O)O

B1: Compound 37 (peptide)
peptide: H-HSQGTFTSDYSKYLE[Aib]ARAEEFVKWLEST-OH
SMILES: CC(C)C[C@H](NC(=O)[C@H](Cc1c[nH]c2ccccc12)NC(=O)[C@H](CCCCN)NC(=O)[C@@H](NC(=O)[C@H](Cc1ccccc1)NC(=O)[C@H](CCC(=O)O)NC(=O)[C@H](CCC(=O)O)NC(=O)[C@H](C)NC(=O)[C@H](CCCNC(=N)N)NC(=O)[C@H](C)NC(=O)C(C)(C)NC(=O)[C@H](CCC(=O)O)NC(=O)[C@H](CC(C)C)NC(=O)[C@H](Cc1ccc(O)cc1)NC(=O)[C@H](CCCCN)NC(=O)[C@H](CO)NC(=O)[C@H](Cc1ccc(O)cc1)NC(=O)[C@H](CC(=O)O)NC(=O)[C@H](CO)NC(=O)[C@@H](NC(=O)[C@H](Cc1ccccc1)NC(=O)[C@@H](NC(=O)CNC(=O)[C@H](CCC(N)=O)NC(=O)[C@H](CO)NC(=O)[C@@H](N)Cc1c[nH]cn1)[C@@H](C)O)[C@@H](C)O)C(C)C)C(=O)N[C@@H](CCC(=O)O)C(=O)N[C@@H](CO)C(=O)N[C@H](C(=O)O)[C@@H](C)O
B2: Compound 32 (peptide)
peptide: H-HS[Dab](Ac)GTFTSDYSKYLD[Aib]ARAESFVKWLEST-OH
SMILES: CC(=O)NCC[C@H](NC(=O)[C@H](CO)NC(=O)[C@@H](N)Cc1c[nH]cn1)C(=O)NCC(=O)N[C@H](C(=O)N[C@@H](Cc1ccccc1)C(=O)N[C@H](C(=O)N[C@@H](CO)C(=O)N[C@@H](CC(=O)O)C(=O)N[C@@H](Cc1ccc(O)cc1)C(=O)N[C@@H](CO)C(=O)N[C@@H](CCCCN)C(=O)N[C@@H](Cc1ccc(O)cc1)C(=O)N[C@@H](CC(C)C)C(=O)N[C@@H](CC(=O)O)C(=O)NC(C)(C)C(=O)N[C@@H](C)C(=O)N[C@@H](CCCNC(=N)N)C(=O)N[C@@H](C)C(=O)N[C@@H](CCC(=O)O)C(=O)N[C@@H](CO)C(=O)N[C@@H](Cc1ccccc1)C(=O)N[C@H](C(=O)N[C@@H](CCCCN)C(=O)N[C@@H](Cc1c[nH]c2ccccc12)C(=O)N[C@@H](CC(C)C)C(=O)N[C@@H](CCC(=O)O)C(=O)N[C@@H](CO)C(=O)N[C@H](C(=O)O)[C@@H](C)O)C(C)C)[C@@H](C)O)[C@@H](C)O
B3: Compound 31 (peptide)
peptide: H-HSQGTFTSDYSKYLD[Aib]ARAESFVKWLEST-NH2
SMILES: CC(C)C[C@H](NC(=O)[C@H](Cc1c[nH]c2ccccc12)NC(=O)[C@H](CCCCN)NC(=O)[C@@H](NC(=O)[C@H](Cc1ccccc1)NC(=O)[C@H](CO)NC(=O)[C@H](CCC(=O)O)NC(=O)[C@H](C)NC(=O)[C@H](CCCNC(=N)N)NC(=O)[C@H](C)NC(=O)C(C)(C)NC(=O)[C@H](CC(=O)O)NC(=O)[C@H](CC(C)C)NC(=O)[C@H](Cc1ccc(O)cc1)NC(=O)[C@H](CCCCN)NC(=O)[C@H](CO)NC(=O)[C@H](Cc1ccc(O)cc1)NC(=O)[C@H](CC(=O)O)NC(=O)[C@H](CO)NC(=O)[C@@H](NC(=O)[C@H](Cc1ccccc1)NC(=O)[C@@H](NC(=O)CNC(=O)[C@H](CCC(N)=O)NC(=O)[C@H](CO)NC(=O)[C@@H](N)Cc1c[nH]cn1)[C@@H](C)O)[C@@H](C)O)C(C)C)C(=O)N[C@@H](CCC(=O)O)C(=O)N[C@@H](CO)C(=O)N[C@H](C(N)=O)[C@@H](C)O
B4: Compound 30 (peptide)
peptide: H-HSQGTFTSDYSKYLD[Aib]ARAESFVKWLESA-OH
SMILES: CC(C)C[C@H](NC(=O)[C@H](Cc1c[nH]c2ccccc12)NC(=O)[C@H](CCCCN)NC(=O)[C@@H](NC(=O)[C@H](Cc1ccccc1)NC(=O)[C@H](CO)NC(=O)[C@H](CCC(=O)O)NC(=O)[C@H](C)NC(=O)[C@H](CCCNC(=N)N)NC(=O)[C@H](C)NC(=O)C(C)(C)NC(=O)[C@H](CC(=O)O)NC(=O)[C@H](CC(C)C)NC(=O)[C@H](Cc1ccc(O)cc1)NC(=O)[C@H](CCCCN)NC(=O)[C@H](CO)NC(=O)[C@H](Cc1ccc(O)cc1)NC(=O)[C@H](CC(=O)O)NC(=O)[C@H](CO)NC(=O)[C@@H](NC(=O)[C@H](Cc1ccccc1)NC(=O)[C@@H](NC(=O)CNC(=O)[C@H](CCC(N)=O)NC(=O)[C@H](CO)NC(=O)[C@@H](N)Cc1c[nH]cn1)[C@@H](C)O)[C@@H](C)O)C(C)C)C(=O)N[C@@H](CCC(=O)O)C(=O)N[C@@H](CO)C(=O)N[C@@H](C)C(=O)O
B5: Compound 29 (peptide)
peptide: H-HSQGTFTSDYSKYLD[Aib]ARAKSFVEWLEKT-OH
SMILES: CC(C)C[C@H](NC(=O)[C@H](Cc1c[nH]c2ccccc12)NC(=O)[C@H](CCC(=O)O)NC(=O)[C@@H](NC(=O)[C@H](Cc1ccccc1)NC(=O)[C@H](CO)NC(=O)[C@H](CCCCN)NC(=O)[C@H](C)NC(=O)[C@H](CCCNC(=N)N)NC(=O)[C@H](C)NC(=O)C(C)(C)NC(=O)[C@H](CC(=O)O)NC(=O)[C@H](CC(C)C)NC(=O)[C@H](Cc1ccc(O)cc1)NC(=O)[C@H](CCCCN)NC(=O)[C@H](CO)NC(=O)[C@H](Cc1ccc(O)cc1)NC(=O)[C@H](CC(=O)O)NC(=O)[C@H](CO)NC(=O)[C@@H](NC(=O)[C@H](Cc1ccccc1)NC(=O)[C@@H](NC(=O)CNC(=O)[C@H](CCC(N)=O)NC(=O)[C@H](CO)NC(=O)[C@@H](N)Cc1c[nH]cn1)[C@@H](C)O)[C@@H](C)O)C(C)C)C(=O)N[C@@H](CCC(=O)O)C(=O)N[C@@H](CCCCN)C(=O)N[C@H](C(=O)O)[C@@H](C)O
B6: Compound 36 (peptide)
peptide: H-HSQGTFTSDYSKYLD[Aib]ARAEEFVKWLEET-OH
SMILES: CC(C)C[C@H](NC(=O)[C@H](Cc1c[nH]c2ccccc12)NC(=O)[C@H](CCCCN)NC(=O)[C@@H](NC(=O)[C@H](Cc1ccccc1)NC(=O)[C@H](CCC(=O)O)NC(=O)[C@H](CCC(=O)O)NC(=O)[C@H](C)NC(=O)[C@H](CCCNC(=N)N)NC(=O)[C@H](C)NC(=O)C(C)(C)NC(=O)[C@H](CC(=O)O)NC(=O)[C@H](CC(C)C)NC(=O)[C@H](Cc1ccc(O)cc1)NC(=O)[C@H](CCCCN)NC(=O)[C@H](CO)NC(=O)[C@H](Cc1ccc(O)cc1)NC(=O)[C@H](CC(=O)O)NC(=O)[C@H](CO)NC(=O)[C@@H](NC(=O)[C@H](Cc1ccccc1)NC(=O)[C@@H](NC(=O)CNC(=O)[C@H](CCC(N)=O)NC(=O)[C@H](CO)NC(=O)[C@@H](N)Cc1c[nH]cn1)[C@@H](C)O)[C@@H](C)O)C(C)C)C(=O)N[C@@H](CCC(=O)O)C(=O)N[C@@H](CCC(=O)O)C(=O)N[C@H](C(=O)O)[C@@H](C)O
B7: Compound 34 (peptide)
peptide: H-HSQGTFTSDYSKYLD[Aib]ARAEKFVEWLEST-OH
SMILES: CC(C)C[C@H](NC(=O)[C@H](Cc1c[nH]c2ccccc12)NC(=O)[C@H](CCC(=O)O)NC(=O)[C@@H](NC(=O)[C@H](Cc1ccccc1)NC(=O)[C@H](CCCCN)NC(=O)[C@H](CCC(=O)O)NC(=O)[C@H](C)NC(=O)[C@H](CCCNC(=N)N)NC(=O)[C@H](C)NC(=O)C(C)(C)NC(=O)[C@H](CC(=O)O)NC(=O)[C@H](CC(C)C)NC(=O)[C@H](Cc1ccc(O)cc1)NC(=O)[C@H](CCCCN)NC(=O)[C@H](CO)NC(=O)[C@H](Cc1ccc(O)cc1)NC(=O)[C@H](CC(=O)O)NC(=O)[C@H](CO)NC(=O)[C@@H](NC(=O)[C@H](Cc1ccccc1)NC(=O)[C@@H](NC(=O)CNC(=O)[C@H](CCC(N)=O)NC(=O)[C@H](CO)NC(=O)[C@@H](N)Cc1c[nH]cn1)[C@@H](C)O)[C@@H](C)O)C(C)C)C(=O)N[C@@H](CCC(=O)O)C(=O)N[C@@H](CO)C(=O)N[C@H](C(=O)O)[C@@H](C)O
B8: Compound 33 (peptide)
peptide: H-HSQGTFTSDYSKYLD[Aib]ARAEEFVSWLEKT-OH
SMILES: CC(C)C[C@H](NC(=O)[C@H](Cc1c[nH]c2ccccc12)NC(=O)[C@H](CO)NC(=O)[C@@H](NC(=O)[C@H](Cc1ccccc1)NC(=O)[C@H](CCC(=O)O)NC(=O)[C@H](CCC(=O)O)NC(=O)[C@H](C)NC(=O)[C@H](CCCNC(=N)N)NC(=O)[C@H](C)NC(=O)C(C)(C)NC(=O)[C@H](CC(=O)O)NC(=O)[C@H](CC(C)C)NC(=O)[C@H](Cc1ccc(O)cc1)NC(=O)[C@H](CCCCN)NC(=O)[C@H](CO)NC(=O)[C@H](Cc1ccc(O)cc1)NC(=O)[C@H](CC(=O)O)NC(=O)[C@H](CO)NC(=O)[C@@H](NC(=O)[C@H](Cc1ccccc1)NC(=O)[C@@H](NC(=O)CNC(=O)[C@H](CCC(N)=O)NC(=O)[C@H](CO)NC(=O)[C@@H](N)Cc1c[nH]cn1)[C@@H](C)O)[C@@H](C)O)C(C)C)C(=O)N[C@@H](CCC(=O)O)C(=O)N[C@@H](CCCCN)C(=O)N[C@H](C(=O)O)[C@@H](C)O
B9: Compound 35 (peptide)
peptide: H-HSQGTFTSDYSKYLD[Aib]ARAEEFVAWLEST-OH
SMILES: CC(C)C[C@H](NC(=O)[C@H](Cc1c[nH]c2ccccc12)NC(=O)[C@H](C)NC(=O)[C@@H](NC(=O)[C@H](Cc1ccccc1)NC(=O)[C@H](CCC(=O)O)NC(=O)[C@H](CCC(=O)O)NC(=O)[C@H](C)NC(=O)[C@H](CCCNC(=N)N)NC(=O)[C@H](C)NC(=O)C(C)(C)NC(=O)[C@H](CC(=O)O)NC(=O)[C@H](CC(C)C)NC(=O)[C@H](Cc1ccc(O)cc1)NC(=O)[C@H](CCCCN)NC(=O)[C@H](CO)NC(=O)[C@H](Cc1ccc(O)cc1)NC(=O)[C@H](CC(=O)O)NC(=O)[C@H](CO)NC(=O)[C@@H](NC(=O)[C@H](Cc1ccccc1)NC(=O)[C@@H](NC(=O)CNC(=O)[C@H](CCC(N)=O)NC(=O)[C@H](CO)NC(=O)[C@@H](N)Cc1c[nH]cn1)[C@@H](C)O)[C@@H](C)O)C(C)C)C(=O)N[C@@H](CCC(=O)O)C(=O)N[C@@H](CO)C(=O)N[C@H](C(=O)O)[C@@H](C)O

biological target: human glucagon receptor (human, UniProt P47871 26-477); assay: cell-based or functional assay
Sequence (P47871 26-477): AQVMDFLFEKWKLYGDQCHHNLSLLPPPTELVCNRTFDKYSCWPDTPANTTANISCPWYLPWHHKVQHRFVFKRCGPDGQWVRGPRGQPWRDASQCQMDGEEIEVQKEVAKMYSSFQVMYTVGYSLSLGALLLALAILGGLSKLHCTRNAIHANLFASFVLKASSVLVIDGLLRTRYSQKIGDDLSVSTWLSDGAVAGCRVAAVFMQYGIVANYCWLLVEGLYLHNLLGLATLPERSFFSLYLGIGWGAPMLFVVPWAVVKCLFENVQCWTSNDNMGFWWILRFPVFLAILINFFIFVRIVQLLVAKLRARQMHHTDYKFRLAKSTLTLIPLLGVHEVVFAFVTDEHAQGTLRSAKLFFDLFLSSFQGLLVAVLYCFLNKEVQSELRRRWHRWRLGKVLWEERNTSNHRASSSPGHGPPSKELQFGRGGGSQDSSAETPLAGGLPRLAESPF

GCG-R EC50 in vitro [nM] (cAMP, AlphaScreen, HEK293 cells expressing human Glucagon-R)	Binder
0.094	B1
0.0093	B2
0.0072	B3
0.016	B4
0.023	B5
0.01	B6
0.028	B7
0.044	B8
0.014	B9
